Test results reported in the Human Domainome abundance scans (Beltran et al. 2025).
± gives the uncertainty stated by the source.

B1: CD2-associated protein, residues 1 to 59; numbered along this chain, Q9Y5K6 (parent)
chain: MVDYIVEYDYDAVHDDELTIRVGEIIRNVKKLQEEGWLEGELNGRRGMFPDNFVKEIKR

Variants of: B1
Assay: abundance fitness (aPCA) (normalised: wild type 0, dead -1); higher = more abundant; growth selection in yeast, the domain comes from the species named
Settings: Homo sapiens

| Variant | abundance fitness |
| --- | --- |
| H14P | -0.946 ± 0.26 |
| H14A | -0.113 ± 0.14 |
| H14E | -0.016 ± 0.13 |
| H14W | -0.455 ± 0.17 |
| H14V | -0.186 ± 0.092 |
| H14C | 0.152 ± 0.17 |
| K58Q | 0.059 ± 0.43 |
| K58V | -0.315 ± 0.29 |
| K58G | -0.008 ± 0.29 |
| K58R | -0.036 ± 0.14 |
| K58C | -0.099 ± 0.24 |
| K58E | 0.001 ± 0.22 |
| G44V | -0.843 ± 0.31 |
| N43C | -0.383 ± 0.11 |
| N43Q | -0.287 ± 0.12 |
| N43V | -0.694 ± 0.18 |
| N43S | -0.221 ± 0.051 |
| N43R | -0.082 ± 0.089 |
| N43G | -0.057 ± 0.15 |
| N43Y | -0.072 ± 0.11 |
| N43M | -0.395 ± 0.15 |

| Variant | abundance fitness |
| --- | --- |
| E7D | -0.256 ± 0.15 |
| E7Y | -0.18 ± 0.18 |
| E7V | 0.008 ± 0.072 |
| E7N | -0.311 ± 0.17 |
| E7L | -0.004 ± 0.057 |
| E7S | -0.212 ± 0.094 |
| E7P | -0.697 ± 0.13 |
| E56Q | -0.217 ± 0.25 |
| E56T | -0.244 ± 0.17 |
| E56K | 0.024 ± 0.28 |
| V13G | -0.046 ± 0.079 |
| V13S | 0.067 ± 0.1 |
| V13Q | -0.268 ± 0.23 |
| V13K | -0.074 ± 0.14 |
| V13N | -0.164 ± 0.17 |
| V13F | -0.354 ± 0.22 |
| V13H | -0.358 ± 0.47 |
| F49P | -0.877 ± 0.3 |
| F49V | -0.056 ± 0.17 |
| F49I | -0.195 ± 0.15 |
| R21C | -0.284 ± 0.1 |

| Variant | abundance fitness |
| --- | --- |
| R21M | -0.713 ± 0.31 |
| R21T | -0.593 ± 0.13 |
| R21A | -0.826 ± 0.19 |
| R21H | -0.161 ± 0.15 |
| R21N | -0.827 ± 0.37 |
| R21S | -0.433 ± 0.091 |
| V6G | -0.438 ± 0.066 |
| V6E | -0.96 ± 0.33 |
| V6H | -0.832 ± 0.2 |
| V6M | -0.795 ± 0.2 |
| T19G | -0.792 ± 0.17 |
| T19N | -0.224 ± 0.11 |
| T19K | -0.464 ± 0.09 |
| V54S | -0.358 ± 0.16 |
| D9G | -0.242 ± 0.096 |
| D9R | -0.417 ± 0.11 |
| D9A | -0.091 ± 0.14 |
| Y10T | -0.878 ± 0.18 |
| Y10D | -0.473 ± 0.46 |
| Y10A | -0.787 ± 0.14 |
| Y10R | -0.014 ± 0.062 |

| Variant | abundance fitness |
| --- | --- |
| Y10P | -0.904 ± 0.26 |
| Y10K | -0.322 ± 0.077 |
| K30I | -0.274 ± 0.12 |
| K30C | -0.148 ± 0.12 |
| K30Q | -0.31 ± 0.19 |
| K30V | -0.166 ± 0.13 |
| K30H | 0.111 ± 0.19 |
| K30F | -0.158 ± 0.14 |
| E39F | -0.432 ± 0.19 |
| E39S | -0.057 ± 0.087 |
| E39I | -0.142 ± 0.17 |
| E39N | -0.446 ± 0.21 |
| E39T | -0.26 ± 0.1 |
| E39Q | -0.248 ± 0.2 |
| E39R | -0.486 ± 0.093 |
| E39L | -0.427 ± 0.1 |
| L38M | 0.049 ± 0.19 |
| L38E | -0.867 ± 0.42 |
| L38N | -0.558 ± 0.16 |
| L38I | -0.433 ± 0.11 |
